Publication PMC3855715, “Two high-resolution structures of the human E3 ubiquitin ligase Siah1” (Acta Crystallographica Section F, 2013)
Values belong to the binder of their own block, whether it stands above or below them.

Key:
[1] = biological target: the molecule itself; test: SEC; size-exclusion chromatography during purification of Siah1 91-282; single species of approximate mass 39 kDa
[2] = biological target: T1, Siah1 (construct used for the complex with SIP, limits not stated) (human, UniProt Q8IUQ4 1-282); test: SEC; size-exclusion gel chromatography of Siah1 with full-length SIP; complex purified; settings: both partners purified
T1 construct: Siah1 (seven-in-absentia homologue 1), human, UniProt Q8IUQ4
T1 sequence (looked up): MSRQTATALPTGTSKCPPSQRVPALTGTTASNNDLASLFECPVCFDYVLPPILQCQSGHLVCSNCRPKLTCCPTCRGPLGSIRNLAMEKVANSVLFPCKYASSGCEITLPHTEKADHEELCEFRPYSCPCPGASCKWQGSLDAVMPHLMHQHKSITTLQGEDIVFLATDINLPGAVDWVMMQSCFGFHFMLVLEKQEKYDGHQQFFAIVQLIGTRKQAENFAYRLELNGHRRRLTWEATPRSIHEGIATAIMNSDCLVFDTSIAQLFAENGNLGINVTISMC

B1: human Siah1 without the RING domain (residues 91-282) (domain or fragment)
chain: MANSVLFPCKYASSGCEITLPHTEKADHEELCEFRPYSCPCPGASCKWQGSLDAVMPHLMHQHKSITTLQGEDIVFLATDINLPGAVDWVMMQSCFGFHFMLVLEKQEKYDGHQQFFAIVQLIGTRKQAENFAYRLELNGHRRRLTWEATPRSIHEGIATAIMNSDCLVFDTSIAQLFAENGNLGINVTISMC
notes: additional methionine at the N-terminus, a cloning artifact (seen in chain A of the 1.95 A structure); also called seven-in-absentia homologue 1; truncated Siah1; source: E. coli, purified as described previously (Rimsa et al., 2013)
stoichiometry N [1]: 2

stoichiometry N [2]: 1
B2: full-length human SIP (Siah-interacting protein) (natural protein, UniProt Q9HB71 1-228, looked up)
chain: MASEELQKDLEEVKVLLEKATRKRVRDALTAEKSKIETEIKNKMQQKSQKKAELLDNEKPAAVVAPITTGYTVKISNYGWDQSDKFVKIYITLTGVHQVPTENVQVHFTERSFDLLVKNLNGKSYSMIVNNLLKPISVEGSSKKVKTDTVLILCRKKVENTRWDYLTQVEKECKEKEKPSYDTETDPSEGLMNVLKKIYEDGDDDMKRTINKAWVESREKQAKGDTEF
